{"source": "the DeepSol protein solubility set", "data": [{"assay": "soluble on expression in E. coli; label from the status in PepcDB or PDB records", "values": [{"sequence": "MSEGWNIAILGATGAVGEALLETLAERQFPVGEIYALARHESAGEHLRFGGKSVIVQDAADFDWTQAQLAFFVAGAEASAAWIDDATNAGCLVIDSSGLFALEPDVPLVVPEVNPYVLADYRNRNVIAVADSLTSQLLAALKPLIDQGGLSRIAVTSMLSASAQGKKAVDALAGQSAKLLNGIPIDEDDFFGRQLAFNMLPLLPDREGSVRQERRIVDEVRKILQDDGVMISASVVQSPVFYGHAQMVSFEALRPLAAEEAREAFSRGEDIVLSEETDYPTQVGDASGNPQLSIGCVHNDYGMPEQIQFWSVADNVRFGGALMAVKIAEKLVQEYLY", "soluble on expression in E. coli": "not soluble"}, {"sequence": "MSEIGTGFPFDPHYVEVLGERMHYVDVGPRDGTPVLFLHGNPTSSYLWRNIIPHVAPSHRCIAPDLIGMGKSDKPDLDYFFDDHVRYLDAFIEALGLEEVVLVIHDWGSALGFHWAKRNPERVKGIACMEFIRPIPTWDEFHHTEVAEEQDHAEAARETFQAFRTADVGRELIIDQNAFIERVLPGGVVRPLTEVEMDHYREPFLKPVDREPLWRFPNELPIAGEPANIVALVEAYMNWLHQSPVPKLLFWGTPGALIPPAEAARLAESLPNCKTVDIGPGLHYLQEDNPDLIGSEIARWLPAL", "soluble on expression in E. coli": "soluble"}, {"sequence": "MSENSIRLTQYSHGAGCGCKISPKVLETILHSEQAKFVDPNLLVGNETRDDAAVYDLGNGTSVISTTDFFMPIVDNPFDFGRIAATNAISDIFAMGGKPIMAIAILGWPINKLSPEIAREVTEGGRYACRQAGIALAGGHSIDAPEPIFGLAVTGIVPTERVKKNSTAQAGCKLFLTKPLGIGVLTTAEKKSLLKPEHQGLATEVMCRMNIAGASFANIEGVKAMTDVTGFGLLGHLSEMCQGAGVQARVDYEAIPKLPGVEEYIKLGAVPGGTERNFASYGHLMGEMPREVRDLLCDPQTSGGLLLAVMPEAENEVKATAAEFGIELTAIGELVPARGGRAMVEIR", "soluble on expression in E. coli": "soluble"}, {"sequence": "MSEPAVVSILDTDLYKLTMLQAVLEHYPDAQVSYKYTNRSPKMALNQEAYNWLREQIRGLRNLHLLPEEEQWLRKNCPYLKESFYEFMHEFEFDPENSISLNYDSETKDLSIFIHGLWKNTIFYEIPLLALVSESYFKFVDKDWSPEGQFEKAYEKGKRLIRAGCAFTDFGTRRRRDPHTQEIVLQGLMKAQEDFKGPGSFLGTSNVYFAAKYNLNVSGTVAHEWYMGIAAITQNYKQANRIASLKWVQTFGTSLLIALTDTFSTDVFLKSFTANSADDLANVFHGVRQDSGCAEEYIEKVVKHYKSIGVDPSTKVIVHSDALNVDRCIELYKYCEKCGIKSAFGIGTNLTSDFQKVSNPSEVSKPMNIVIKLFSAEGTKAVKISDDIMKNTGDRDAVIQAKHQLCLPIA", "soluble on expression in E. coli": "soluble"}, {"sequence": "MSEPLHALARQLEQAIRASEPFQQLKRAYEDVRRDETAYRMFANVRDIQLRLHEKQMRGAAILPDEIEQAQKAMALAQQNEKLARLMALEQQMSITIAEVQQIAMKPLEELHRSFMEGR", "soluble on expression in E. coli": "soluble"}, {"sequence": "MSEPLIVGIRHHSPACARLVKSLIESQRPRYVLIEGPADFNDRVDELFLAHQLPVAIYSYCQYQDGAAPGRGAWTPFAEFSPEWQALQAARRIQAQTYFIDLPCWAQSEEEDDSPDTQDESQALLLRATRMDNSDTLWDHLFEDESQQTALPSALAHYFAQLRGDASGDALNRQREAFMARWIGWAMQQNNGDVLVVCGGWHAPALAKMWRECPQKINKPELPSLADAVTGCYLTPYSEKRLDVLAGYLSGMPAPVWQNWCWQWGLQKAGEQLLKTILTRLRQHKLPASTADMAAAHLHAMALAQLRGHTLPLRTDWLDAIAGSLIKEALNAPLPWSYRGVIHPDTDPILLTLIDTLAGDGFGKLAPSTPQPPLPKDVTCELERTAISLPAELTLNRFTPDGLAQSQVLHRLAILEIPGIVRQQGSTLTLAGNGEERWKLTRPLSQHAALIEAACFGATLQEAARNKLEADMLDAGGIGSITTCLSQAALAGLASFSQQLLEQLTLLIAQENQFAEMGQALEVLYALWRLDEISGMQGAQILQTTLCATIDRTLWLCESNGRPDEKEFHAHLHSWQALCHILRDLHSGVNLPGVSLSAAVALLERRSQAIHAPALDRGAALGALMRLEHPNASAEAALTMLAQLSPAQSGEALHGLLALARHQLACQPAFIAGFSSHLNQLSEADFINALPDLRAAMAWLPPRERGTLAHQVLEHYQLAQLPVSALQMPLHCPPQAIAHHQQLEQQALASLQNWGVFHV", "soluble on expression in E. coli": "not soluble"}, {"sequence": "MSEQKRRTIQIAISEDHYEELQKALELLKGTQLPFSTTVEQFVELILSNYVATSNKISSLAKSGFDVASLQQELEKIGNLSGVDDNLKGFLSELLKTSRNGFSNPNKDGKKNDDDNNSSSKS", "soluble on expression in E. coli": "soluble"}, {"sequence": "MSERAYNFNAGPAALPLEVLERAQAEFVDYQHTGMSIMEMSHRGAVYEAVHNEAQARLLALLGNPTGYKVLFIQGGASTQFAMIPMNFLKEGQTANYVMTGSWASKALKEAKLIGDTHVAASSEASNYMTLPKLQEIQLQDNAAYLHLTSNETIEGAQFKAFPDTGSVPLIGDMSSDILSRPFDLNQFGLVYAGAQKNLGPSGVTVVIVREDLVAESPKHLPTMLRYDTYVKNNSLYNTPPSFGIYMVNEVLKWIEERGGLEGVQQANRKKASLIYDAIDQSGGFYRGCVDVDSRSDMNITFRLASEELEKEFVKASEQEGFVGLKGHRSVGGLRASIYNAVPYESCEALVQFMEHFKRSRG", "soluble on expression in E. coli": "soluble"}, {"sequence": "MSESSVTTEIVVRLPKQMVTELDGIGKQENKNRHELICQATQLLLRQHKTKKRYQHESMRRGYIEMGKINLGIASEAFLAEYEAAHTVERLVSGG", "soluble on expression in E. coli": "not soluble"}, {"sequence": "MSETPLLFQTRDYRGATIEDLNIPLAVSINPTTSIYEAIGIAFENEFTYLPVIHERTKRLLGVINIEELKSNGDKLKRSILAPIVKSYMIWFNQSAKRKYEQENKEVLSSNRTAPKTTILKPRGKRYEVLTPMTPLEKLAEFFNSGNYFAIVTNGHGDFVYGVVTPQDLMKYEQSRPKL", "soluble on expression in E. coli": "soluble"}, {"sequence": "MSEVDKAHLAAINKDVQANDTLFGKIIRKEIPAKIIFEDDEALAFHDVSPQAPIHFLVIPKRRIDMLENAVDSDAALIGKLMVTASKVAKQLGMANGYRVVVNNGKDGAQSVFHLHLHVLGGRQLQWPPG", "soluble on expression in E. coli": "not soluble"}, {"sequence": "MSEVIQDRRSAVDTARAGHMLERARWAAAAYGEYDAATVEGIVAAVAEAAHAHAERFAADAVAETGMGVVADKVRKNRACSRGIVEYYRGHDYISPRVDPDRKIVELPRPAGVVLALTPTTNPVATVYFKTILALMTRNAVVVAPHPRAARCSAEAARVLAEAAVAAGAPDGVVQVIDEPSIPLVQALMADERTDVIVATGGTAVVRAAYSSGNPALGVGPGNVPVLVDASADVAAAAQRIVDSKAFDNSVLCTNESVLIAEDAVADKLRAALTRAGAHILDEDGARRLRAYMFADGHLNTDVVGRDAAWIAGQAGLRVTPKTRVLIAPFDHVIAEEMLAHEKLSPVLGMTTVADAARGIRAARAVVRIGGAGHSAAIHSENPAVITDFAAQVPVLRVSVNVGNSTGSAGLDTNLAPSMTIGTGFVGRSSIGENLQPHNLVNWTRIAYNSDPGVVMGNFTGIDPWRAPAGPVPAYPRASNDRDGAVIQAAPQRSYQSPSRTTDVNLDALRAELRALVVEELAQLIKR", "soluble on expression in E. coli": "not soluble"}, {"sequence": "MSEVNKKVQDGVDDYLEEEDFGQLLEAFDKSREEATTEGVIVEIKNDEVYVDIGKKSEGILALSEIQGDNSKLLFNVGDSIKVAVMGSRGGRSLLSHKKALRKEKVIEFIKNYQENQDDIFTVKVVGKNKGGLIVVDENDVEFFLPKSQYGFKETNNIIGKTFKVKIIKIDKDEQSIIVSRKKTLDDERRKRKELINNVAQQEDLIEGIVKKITTYGMFVDVGGVDGLVHYSEISYKGPVNPGTLYKEGDKVPVKVIKYDKERKHLSLSIKAALPDPWSEIKDTLDIGDTIKVIVSNIEPYGAFVDLGNDIEGFLHISEISWDKNIKNPKDYINKGQEIDVEVIEINPNERRLRVSLRNLLSRPFDEFMKSYKIADVVEGEITSVTSFGAFVKLGGIEGLLHNEDASWDRNDKCKDKFSQGDKIKVKIIKIDEENQKISLSTKELSSSPVQEYAKIHKVGDIVKGAIRDIKDFGVFVELSKNVDALIHKEDISTSMLENLKIGDDIEAAIVFIDEKKNRIRLSVKNLVRIKEREVLNEINNDDKVTLGDIIKDQLALEHHHHHH", "soluble on expression in E. coli": "soluble"}, {"sequence": "MSEVYRLTCIVCPLSCSIEVEIEAGKIKDIKGYTCPRGKEWAIEEIRAPKRVVMSVIPVEGGKLPTVSVKTEKPIPKDKIPELMKMLAKLKLKAPVKVGQVVGEFEGVKIIATREALEHHHHHH", "soluble on expression in E. coli": "not soluble"}, {"sequence": "MSFEAFTELYIRDVKNRLKENTWLTKEHIIRTKILPFFGKLKISEISTKEIITWQNEMLAYRDEKKKPYSQTYLKTLHNQLSAIFNHAVRYYELRSNPAAKVGNMGSELEHHHHHH", "soluble on expression in E. coli": "not soluble"}, {"sequence": "MSFETISVIGLGYIGLPTAAAFASRKKKVIGVDVNAHAVETINRGAIHIVEPDLDKVVKIAVEGGYLQAVTKPQAADAFLIAVPTPFKGDHEPDMIFVESAAKSIAPVLKKGDLVILESTSPVGATEQMAQWLAEARPDLSFPQQAGEAADINIAYCPERVLPGQVMVELIQNDRVIGGMTPKCSARASALYKIFLEGECVVTNSRTAEMCKLTENSFRDVNIAFANELSLICDEQGINVWELIRLANRHPRVNILQPGPGVGGHCIAVDPWFIVSQNPQLARLIHTARLVNDGKPLWVVDRVKAAVADCLAASDKRASEVKIACFGLAFKPDIDDLRESPAVGVARLIAEWHVGETLVVEPNVEQLPKSLMGLVTLKDTATALQQADVLVMLVDHKQFKAIKPEDIKQQWIVDTKGVWR", "soluble on expression in E. coli": "not soluble"}, {"sequence": "MSFFHANQREALNQSLSELQGQINVSFEFFPPRTSEMEDTLWSSIDRLSTLKPKFVSVTYGANSGERDRTHSIIKGIKERTGLEAAPHLTCIDASPTQLRDIAIDYWNSGIRHIVALRGDLPPNSGKPEMYACDLVGLLKDVGDFDISVAAYPEIHPEAKSAQADLINLKRKIDAGANRAITQFFFDVESYLRFRDRCVATGIDVEIVPGILPVSNFKQLQRFATMTNVRVPNWMTSIFDGLDNDPETRKMVGASVAMDMVKILSREGVKDFHFYTLNRAELSYAICHTLGVRP", "soluble on expression in E. coli": "not soluble"}, {"sequence": "MSFIAYPCAVPTQRQVPMSPPTTPRILMKLCPIMEIPIIGGPRQNGTYNVFIFDLKIRKFIPHRCSSCAVKILEDHLSPMYASGSVIFMRNEVTQEVEQYVYSFETGGFQQVDYPELVYSAEKFTESSFIVMIENSDGKKVLIERGGNEAVRKLEYRLGKCVEMPKVEVQLLAAEEFDDADPWSDNDSLSSEHLDYNETLPAFKTTFCQDFQMYVLYIITSRGHYEKYIYNQSTSQFEILDCEKCPDTTREVDLLPKYAEFCEEIQAYVIHVFNSFTDRMEQYVFDSKIQGFVEVNQPELKYDSSKDQDPTSSIFFVLKGTTVIMRGAQGRLKKEVYCSIKKHFVEVPNSVIKSFDTQFMEKKQKMDKKKKAKKIKKSKKKASKESQELDVLVEKIRLCDDPFSDGPSCSTSPDIPEDAPDDGMSILKQKFVESLTTLYGGSLPPYVQKELEQI", "soluble on expression in E. coli": "not soluble"}, {"sequence": "MSFLQHYKSGNLVLPSALLFHYKDIFSNADDFLVWQFFYFQNTTKMEDIATSQIATAIGKTVPEVNRSVSNLISQELLDMKTIELDGESEVLFDATLALKKLDDLLTAADETTVSSSKGISNALKDLVEDFERELGRMLSPFELEDLQKTVSDDKTDPDLVRSALREAVFNGKTNWNYIQAILRNWRHEGISTLRQVEERRKEREQANPANVTVSDDFLSAMNLWSDSDAR", "soluble on expression in E. coli": "not soluble"}, {"sequence": "MSFPAASIDLGTNTARLLIGSVEAGRIEHLLVKRHITRLGGGFTKERGISPEAWSRSLAALVDFADEMNRAGVVRVRAVATSAVRDAVNGGDFCADVAERTGISLEVIDGEEEALLTLAGVLSGLDRKEGRFFVFDVGGGSTEYTLASGNAPLYTESLPLGVVRLTEGKSDLPAMEEKVGRELAGLRERLAGRALDGQLAGATLVGTAGTATTLAAISLGMTDYDYRRVNNHLLSRDEIARILALLLPLSPAERLAVPGLEKGREDLIVAGTLITLATMDLFGFESMTVSDFGLLEGALIGLARTDELEHHHHHH", "soluble on expression in E. coli": "not soluble"}]}]}
